The results in this text go back to PMC3116811 (PLoS Pathogens, 2011).

The target in this test is T1, chimeric Nb_An05-Fc HCAb (Nb_An05 fused to the hinge and Fc-domain of human IgG1) (camelid).
T1 construct: also called synthetic HCAb; reconstituted HCAb; not shown: Fc (human IgG1, including the hinge), C-terminal, kept
The test is described as follows: ELISA; format not told; Nb_An05-Fc HCAb on the VSG antigen. Conditions: both partners purified. Background: An ELISA detects its analyte on a solid surface through an enzyme-linked reagent.

B1: purified soluble AnTat1.1 VSG (variant-specific surface glycoprotein of Trypanosoma brucei AnTat1.1) (natural protein)
chain: QTAGRPLADVVGKTLCTYSKTAKRQAANLAQTLQRASSAAKQSRQAQQLAALALAKLPDYKEAAATLLIYATHKIQDAQASIENWTGENTKLVGQAMYSSGRIDELMLLLEGHREDGANGQDKTCLGAAAGGNTVNEFVKTECDTESGHNIEADNSNIGQAATTLSQESTDPEASGGASCKITANLATDYDSHANELPLLGGLLTIHNAGGFKTGQSLQTAAPTNKLISALKNKGAGVAAKLATVTSAAPTSKQELKTLLASKGERAKLQAANDEYNNWKPGAKPEDFDAHIKKVFGAEDGKDSAYAIALEGISIEAPLGGGQTQNKQLYSMQPKDLMAALIGTIAELQTAAATKPACPGHKQTTTESDALCSKIKDANECNSKHFCSYNGTETDSAKKCKYNATKASASDAPVTQAQTTSRSETPAEKCTGKKKDDCKDGCKWEAETCKD
Regarding B1, the binding result was “binds”.
